Laboratory results as given in article PMC4180030.

Molecular target: dimeric oxygen-evolving photosystem II complex isolated from WT T. elongatus (Thermosynechococcus elongatus (endogenous in T. elongatus BP1)) (UniProt P0A444)
Assay: co-purification by two-step anion-exchange chromatography, immunoblotting; PSII complexes isolated from WT T. elongatus membranes (Kern et al. 2005); semi-quantitative immunoblotting of thylakoids and PSII against recombinant protein standards

stoichiometry N (CyanoQ per PSII monomer): 0.4
B1: CyanoQ (Tll2057) from Thermosynechococcus elongatus (natural protein)
chain: CGGPSATTPPPPTYSELQITRIQDYLRDIEKNAERFADLEVSVAKGDWQEARNIMRGPLGEMLMDMRALNRNLLAKDQPTPTALTRALTDDFLKIDQGADLDSVTVAQEGFREAEADFKAYLNSLPELS
